Values of other authors, collected in PMC10651775 (Blood, 2022).

Tested on: R/R ATL
Conditions: phase 2 study (3/12); cited from earlier work

B1: mogamulizumab: defucosylated anti-CCR4 antibody (antibody, chains of the INN, looked up, V domains shown)
VH: EVQLVESGGDLVQPGRSLRLSCAASGFIFSNYGMSWVRQAPGKGLEWVATISSASTYSYYPDSVKGRFTISRDNAKNSLYLQMNSLRVEDTALYYCGRHSDGNFAFGYWGQGTLVTVSS
VL: DVLMTQSPLSLPVTPGEPASISCRSSRNIVHINGDTYLEWYLQKPGQSPQLLIYKVSNRFSGVPDRFSGSGSGTDFTLKISRVEAEDVGVYYCFQGSLLPWTFGQGTKVEIK
  ORR in nodal or extranodal lesions: 25%
